Experimental findings from paper PMC11446282 are described below.

The chains are these.
B1: IER2 R9: IER2, R9 to alanine (protein, UniProt Q9BTL4 1-223, looked up, variant R9A)
Immediate early response gene …: MEVQKEAQAIMTLSVWKMYHSRMQRGGLRLHRSLQLSLVMRSARELYLSAKVEALEPEVSLPAALPSDPRLHPPREAESTAETATPDGEHPFPEPMDTQEAPTAEETSACCAPRPAKVSRKRRSSSLSDGGDAGLVPSKKARLEEKEEEEGASSEVADRLQPPPAQAEGAFPNLARVLQRRFSGLLNCSPAAPPTAPPACEAKPACRPADSMLNVLVRAVVAF
B2: IER2 I10: IER2, I10 to alanine (protein, UniProt Q9BTL4 1-223, looked up, variant I10A)
Immediate early response gene …: MEVQKEAQRAMTLSVWKMYHSRMQRGGLRLHRSLQLSLVMRSARELYLSAKVEALEPEVSLPAALPSDPRLHPPREAESTAETATPDGEHPFPEPMDTQEAPTAEETSACCAPRPAKVSRKRRSSSLSDGGDAGLVPSKKARLEEKEEEEGASSEVADRLQPPPAQAEGAFPNLARVLQRRFSGLLNCSPAAPPTAPPACEAKPACRPADSMLNVLVRAVVAF
B3: IER2 M11: IER2, M11 to alanine (protein, UniProt Q9BTL4 1-223, looked up, variant M11A)
Immediate early response gene …: MEVQKEAQRIATLSVWKMYHSRMQRGGLRLHRSLQLSLVMRSARELYLSAKVEALEPEVSLPAALPSDPRLHPPREAESTAETATPDGEHPFPEPMDTQEAPTAEETSACCAPRPAKVSRKRRSSSLSDGGDAGLVPSKKARLEEKEEEEGASSEVADRLQPPPAQAEGAFPNLARVLQRRFSGLLNCSPAAPPTAPPACEAKPACRPADSMLNVLVRAVVAF
B4: IER2 L13: IER2, L13 to alanine (protein, UniProt Q9BTL4 1-223, looked up, variant L13A)
Immediate early response gene …: MEVQKEAQRIMTASVWKMYHSRMQRGGLRLHRSLQLSLVMRSARELYLSAKVEALEPEVSLPAALPSDPRLHPPREAESTAETATPDGEHPFPEPMDTQEAPTAEETSACCAPRPAKVSRKRRSSSLSDGGDAGLVPSKKARLEEKEEEEGASSEVADRLQPPPAQAEGAFPNLARVLQRRFSGLLNCSPAAPPTAPPACEAKPACRPADSMLNVLVRAVVAF
B5: IER2 T12: IER2, T12 to alanine (protein, UniProt Q9BTL4 1-223, looked up, variant T12A)
Immediate early response gene …: MEVQKEAQRIMALSVWKMYHSRMQRGGLRLHRSLQLSLVMRSARELYLSAKVEALEPEVSLPAALPSDPRLHPPREAESTAETATPDGEHPFPEPMDTQEAPTAEETSACCAPRPAKVSRKRRSSSLSDGGDAGLVPSKKARLEEKEEEEGASSEVADRLQPPPAQAEGAFPNLARVLQRRFSGLLNCSPAAPPTAPPACEAKPACRPADSMLNVLVRAVVAF
B6: RBM7 M147: RBM7, M147 to alanine (protein, UniProt Q9Y580 2-266, looked up, variant M147A)
RNA-binding protein 7: GAAAAEADRTLFVGNLETKVTEELLFELFHQAGPVIKVKIPKDKDGKPKQFAFVNFKHEVSVPYAMNLLNGIKLYGRPIKIQFRSGSSHAPQDVSLSYPQHHVGNSSPTSTSPSRYERTMDNMTSSAQIIQRSFSSPENFQRQAVANSALRQMSYGGKFGSSPLDQSGFSPSVQSHSHSFNQSSSSQWRQGTPSSQRKVRMNSYPYLADRHYSREQRYTDHGSDHHYRGKRDDFFYEDRNHDDWSHDYDNRRDSSRDGKWRSSRH
B7: RBM7 L151: RBM7, L151 to alanine (protein, UniProt Q9Y580 2-266, looked up, variant L151A)
RNA-binding protein 7: GAAAAEADRTLFVGNLETKVTEELLFELFHQAGPVIKVKIPKDKDGKPKQFAFVNFKHEVSVPYAMNLLNGIKLYGRPIKIQFRSGSSHAPQDVSLSYPQHHVGNSSPTSTSPSRYERTMDNMTSSAQIIQRSFSSPENFQRQAVMNSAARQMSYGGKFGSSPLDQSGFSPSVQSHSHSFNQSSSSQWRQGTPSSQRKVRMNSYPYLADRHYSREQRYTDHGSDHHYRGKRDDFFYEDRNHDDWSHDYDNRRDSSRDGKWRSSRH
B8: RBM7 N140: RBM7, N140 to alanine (protein, UniProt Q9Y580 2-266, looked up, variant N140A)
RNA-binding protein 7: GAAAAEADRTLFVGNLETKVTEELLFELFHQAGPVIKVKIPKDKDGKPKQFAFVNFKHEVSVPYAMNLLNGIKLYGRPIKIQFRSGSSHAPQDVSLSYPQHHVGNSSPTSTSPSRYERTMDNMTSSAQIIQRSFSSPEAFQRQAVMNSALRQMSYGGKFGSSPLDQSGFSPSVQSHSHSFNQSSSSQWRQGTPSSQRKVRMNSYPYLADRHYSREQRYTDHGSDHHYRGKRDDFFYEDRNHDDWSHDYDNRRDSSRDGKWRSSRH
B9: RBM7 Q142: RBM7, Q142 to alanine (protein, UniProt Q9Y580 2-266, looked up, variant Q142A)
RNA-binding protein 7: GAAAAEADRTLFVGNLETKVTEELLFELFHQAGPVIKVKIPKDKDGKPKQFAFVNFKHEVSVPYAMNLLNGIKLYGRPIKIQFRSGSSHAPQDVSLSYPQHHVGNSSPTSTSPSRYERTMDNMTSSAQIIQRSFSSPENFARQAVMNSALRQMSYGGKFGSSPLDQSGFSPSVQSHSHSFNQSSSSQWRQGTPSSQRKVRMNSYPYLADRHYSREQRYTDHGSDHHYRGKRDDFFYEDRNHDDWSHDYDNRRDSSRDGKWRSSRH
B10: RBM7 E139: RBM7, E139 to alanine (protein, UniProt Q9Y580 2-266, looked up, variant E139A)
RNA-binding protein 7: GAAAAEADRTLFVGNLETKVTEELLFELFHQAGPVIKVKIPKDKDGKPKQFAFVNFKHEVSVPYAMNLLNGIKLYGRPIKIQFRSGSSHAPQDVSLSYPQHHVGNSSPTSTSPSRYERTMDNMTSSAQIIQRSFSSPANFQRQAVMNSALRQMSYGGKFGSSPLDQSGFSPSVQSHSHSFNQSSSSQWRQGTPSSQRKVRMNSYPYLADRHYSREQRYTDHGSDHHYRGKRDDFFYEDRNHDDWSHDYDNRRDSSRDGKWRSSRH
B11: RBM7 N148: RBM7, N148 to alanine (protein, UniProt Q9Y580 2-266, looked up, variant N148A)
RNA-binding protein 7: GAAAAEADRTLFVGNLETKVTEELLFELFHQAGPVIKVKIPKDKDGKPKQFAFVNFKHEVSVPYAMNLLNGIKLYGRPIKIQFRSGSSHAPQDVSLSYPQHHVGNSSPTSTSPSRYERTMDNMTSSAQIIQRSFSSPENFQRQAVMASALRQMSYGGKFGSSPLDQSGFSPSVQSHSHSFNQSSSSQWRQGTPSSQRKVRMNSYPYLADRHYSREQRYTDHGSDHHYRGKRDDFFYEDRNHDDWSHDYDNRRDSSRDGKWRSSRH
B12: RBM7 S149: RBM7, S149 to alanine (protein, UniProt Q9Y580 2-266, looked up, variant S149A)
RNA-binding protein 7: GAAAAEADRTLFVGNLETKVTEELLFELFHQAGPVIKVKIPKDKDGKPKQFAFVNFKHEVSVPYAMNLLNGIKLYGRPIKIQFRSGSSHAPQDVSLSYPQHHVGNSSPTSTSPSRYERTMDNMTSSAQIIQRSFSSPENFQRQAVMNAALRQMSYGGKFGSSPLDQSGFSPSVQSHSHSFNQSSSSQWRQGTPSSQRKVRMNSYPYLADRHYSREQRYTDHGSDHHYRGKRDDFFYEDRNHDDWSHDYDNRRDSSRDGKWRSSRH
B13: RBM7 F141: RBM7, F141 to alanine (protein, UniProt Q9Y580 2-266, looked up, variant F141A)
RNA-binding protein 7: GAAAAEADRTLFVGNLETKVTEELLFELFHQAGPVIKVKIPKDKDGKPKQFAFVNFKHEVSVPYAMNLLNGIKLYGRPIKIQFRSGSSHAPQDVSLSYPQHHVGNSSPTSTSPSRYERTMDNMTSSAQIIQRSFSSPENAQRQAVMNSALRQMSYGGKFGSSPLDQSGFSPSVQSHSHSFNQSSSSQWRQGTPSSQRKVRMNSYPYLADRHYSREQRYTDHGSDHHYRGKRDDFFYEDRNHDDWSHDYDNRRDSSRDGKWRSSRH
B14: RBM7 P138: RBM7, P138 to alanine (protein, UniProt Q9Y580 2-266, looked up, variant P138A)
RNA-binding protein 7: GAAAAEADRTLFVGNLETKVTEELLFELFHQAGPVIKVKIPKDKDGKPKQFAFVNFKHEVSVPYAMNLLNGIKLYGRPIKIQFRSGSSHAPQDVSLSYPQHHVGNSSPTSTSPSRYERTMDNMTSSAQIIQRSFSSAENFQRQAVMNSALRQMSYGGKFGSSPLDQSGFSPSVQSHSHSFNQSSSSQWRQGTPSSQRKVRMNSYPYLADRHYSREQRYTDHGSDHHYRGKRDDFFYEDRNHDDWSHDYDNRRDSSRDGKWRSSRH
B15: RBM7 Q153: RBM7, Q153 to alanine (protein, UniProt Q9Y580 2-266, looked up, variant Q153A)
RNA-binding protein 7: GAAAAEADRTLFVGNLETKVTEELLFELFHQAGPVIKVKIPKDKDGKPKQFAFVNFKHEVSVPYAMNLLNGIKLYGRPIKIQFRSGSSHAPQDVSLSYPQHHVGNSSPTSTSPSRYERTMDNMTSSAQIIQRSFSSPENFQRQAVMNSALRAMSYGGKFGSSPLDQSGFSPSVQSHSHSFNQSSSSQWRQGTPSSQRKVRMNSYPYLADRHYSREQRYTDHGSDHHYRGKRDDFFYEDRNHDDWSHDYDNRRDSSRDGKWRSSRH
B16: RBM7 R143: RBM7, R143 to alanine (protein, UniProt Q9Y580 2-266, looked up, variant R143A)
RNA-binding protein 7: GAAAAEADRTLFVGNLETKVTEELLFELFHQAGPVIKVKIPKDKDGKPKQFAFVNFKHEVSVPYAMNLLNGIKLYGRPIKIQFRSGSSHAPQDVSLSYPQHHVGNSSPTSTSPSRYERTMDNMTSSAQIIQRSFSSPENFQAQAVMNSALRQMSYGGKFGSSPLDQSGFSPSVQSHSHSFNQSSSSQWRQGTPSSQRKVRMNSYPYLADRHYSREQRYTDHGSDHHYRGKRDDFFYEDRNHDDWSHDYDNRRDSSRDGKWRSSRH
B17: RBM7 R152: RBM7, R152 to alanine (protein, UniProt Q9Y580 2-266, looked up, variant R152A)
RNA-binding protein 7: GAAAAEADRTLFVGNLETKVTEELLFELFHQAGPVIKVKIPKDKDGKPKQFAFVNFKHEVSVPYAMNLLNGIKLYGRPIKIQFRSGSSHAPQDVSLSYPQHHVGNSSPTSTSPSRYERTMDNMTSSAQIIQRSFSSPENFQRQAVMNSALAQMSYGGKFGSSPLDQSGFSPSVQSHSHSFNQSSSSQWRQGTPSSQRKVRMNSYPYLADRHYSREQRYTDHGSDHHYRGKRDDFFYEDRNHDDWSHDYDNRRDSSRDGKWRSSRH

The test system of the first test is PP2A-B55α. As to the kind of experiment: Single alanine mutational scan, YFP-tagged interactors immunoprecipitated from HeLa cells, Western blot. The class given is binding, human. To be noted: single alanine mutant of YFP-tagged IER2. The protocol:
Standard cloning techniques were used throughout. Point mutations were introduced by whole plasmid polymerase chain reaction (PCR). All constructs were fully sequenced. Synthetic DNA was purchased from GeneArt, Life Technologies and cloned into pcDNA5/FRT/TO (Invitrogen) expression vector containing YFP, resulting in the indicated YFP fusion proteins. These constructs were transiently transfected into HeLa cells 24 hours before harvesting cells. Cells were lysed in lysis buffer [50 mM tris-HCl (pH 7.5), 50 mM NaCl, 1 mM EDTA, 1 mM […], and 0.1% NP-40]. Complexes were immunoprecipitated at 4°C in lysis buffer with green fluorescent protein (GFP)–Trap (ChromoTek) and washed in lysis buffer. Precipitated protein complexes were washed three times in lysis buffer, eluted in 2× SDS sample buffer, and subjected to Western blotting or MS as indicated.
(In general: A western blot detects proteins with antibodies after separation by electrophoresis.)
B1 came in with an Experimental % binding of 78%.

In turn, B2 yielded an Experimental % binding of 81%.

B3 displayed an Experimental % binding of 81%.

In turn, B4 displayed an Experimental % binding of 80%.

As for B5, the Experimental % binding turned out to be 94%.

The test is the same for the next values; noted with them: single alanine mutant of YFP-tagged RBM7.
B6 showed an Experimental % binding of 9%.

In turn, B7 yielded an Experimental % binding of 47%.

B8 yielded an Experimental % binding of 5%.

Regarding B9, the Experimental % binding stood at 67%.

B10 returned an Experimental % binding of 77%.

As to B11, the Experimental % binding was determined as 29%.

With B12, the Experimental % binding came to 109%.

For the molecule B13, the Experimental % binding came to 4%.

On to B14, for which the Experimental % binding was determined as 92%.

Take B15: the Experimental % binding turned out to be 131%.

In turn, B16 displayed an Experimental % binding of 5%.

Consider B17, for which the Experimental % binding is reported as 62%.
